Kd data for one substance are collected here from paper PMC9249324.

What all share (experiment): MST
The target in assay [1] is MBP-Mpp83Aa1 modified with ABP5 at AA172-178 (Bacillus thuringiensis).
The target of assay [2] is MBP-Mpp83Aa1 modified with ABP5 at AA70-76 (Bacillus thuringiensis).
For assay [3], the target named is MBP-Mpp83Aa1 (native) (Bacillus thuringiensis).
The target of assay [4] is MBP-Mpp83Aa1 modified with ABP5 at AA224-230 (Bacillus thuringiensis).

As usually defined, the Kd is a measure of binding affinity in units of concentration. The low end stands for higher affinity, the high end for lower affinity. With “Recombinant N. viridula aminopeptidase N (enzyme)”, the Kd was found to be 4.98 nM in assay [1], 123 nM in assay [2], 139 nM in assay [3] and 187 nM in assay [4].
